Assays:
[1] = target: RACK1, receptor of activated C kinase (human, UniProt P63244 1-317); assay: Copine-III IP from SKBr3 lysates, relative quantification by MRM mass spectrometry
ErbB2 = target: T1, ErbB2 (human, UniProt P04626 23-1255, tyrosine-phosphorylated (active) receptor after HRG stimulation; sites not resolved in the IP and FRET experiments); assay: ErbB2 immunoprecipitation from SKBr3 and T47D cells
T1 construct: whole, on cells; Endogenous receptor, tested in fixed cells (FRET) and in cell lysates (co-IP); also called HER2

fold enrichment in Copine-III IPs vs. control IPs [1]: 1.5 fold
binding result (ErbB2): binds
B1: Copine III (other)
chain: MAAQCVTKVALNVSCANLLDKDIGSKSDPLCVLFLNTSGQQWYEVERTERIKNCLNPQFSKTFIIDYYFEVVQKLKFGVYDIDNKTIELSDDDFLGECECTLGQIVSSKKLTRPLVMKTGRPAGKGSITISAEEIKDNRVVLFEMEARKLDNKDLFGKSDPYLEFHKQTSDGNWLMVHRTEVVKNNLNPVWRPFKISLNSLCYGDMDKTIKVECYDYDNDGSHDLIGTFQTTMTKLKEASRSSPVEFECINEKKRQKKKSYKNSGVISVKQCEITVECTFLDYIMGGCQLNFTVGVDFTGSNGDPRSPDSLHYISPNGVNEYLTALWSVGLVIQDYDADKMFPAFGFGAQIPPQWQVSHEFPMNFNPSNPYCNGIQGIVEAYRSCLPQIKLYGPTNFSPIINHVARFAAAATQQQTASQYFVLLIITDGVITDLDETRQAIVNASRLPMSIIIVGVGGADFSAMEFLDGDGGSLRSPLGEVAIRDIVQFVPFRQFQNAPKEALAQCVLAEIPQQVVGYFNTYKLLPPKNPATKQQKQ
notes: Endogenous protein of the human breast tumor cell lines T47D and SKBr3, tested in cell lysates (pull-down, IP) or in fixed cells (FRET); also called CPNE3; CPN3

Reference: patent EP2292266A1 (Novartis Forschungsstiftung, Zweigniederlassung, dated 2011)
